Measured values reported in US20160311911A1, “METHODS FOR TREATING ALLERGIC AIRWAY INFLAMMATION” (priority 2015, published 2016).

Tests used:
Assay type in all cases: cell-based
Settings in all cases: 100 μg/mL for 18 hours
[1] = test system: TCM^Null cells; experiment: CXCL8 levels in cell supernatants, TCM^Null cells
Excerpt: (§1) Three HEK 293 cell lines, TCM^Null (TLR4^Null, CD14^Null, MD2^Null), TLR4^Hi (TLR4^Hi, CD14^Null, MD2^Null) and TCM^hi (TLR4^Hi, CD14^Hi, MD2^Hi; InvivoGen, San Diego, Calif.), were used. In some experiments hTERT immortalized normal human bronchial epithelial cells (HBECs) were used, as previously described (17).
(§2) Measurement of CXCL8 levels in cell supernatants. TCM^Null, TLR4^Hi, TCM^Hi, TLR4^Hi-ST, or TLR4^Hi-MD2 cells were stimulated with RWPE, Bermuda grass, rye grass, pigweed, mountain cedar, cat dander, LPS, or Amb a 1 at 100 μg/mL for 18 hours. In some experiments HBECs, HBECs transfected with siRNA against MD2, or sham-transfected HBECs were starved for 24 hours and stimulated with RWPE, Bermuda grass, rye grass, timothy grass, pigweed, Russian thistle, cottonwood, walnut, and cat dander allergenic extracts. Cell supernatants were assayed for CXCL8.

[2] = test system: TLR4^Hi cells; experiment: CXCL8 levels in cell supernatants, TLR4^Hi cells
Excerpt: as §1, §2

[3] = test system: TCM^Hi cells; experiment: CXCL8 levels in cell supernatants, TCM^Hi cells
Excerpt: as §1, §2

B1: Amb a 1: major allergen in RWPE, a single protein (protein)
chain: AEDLQEILPVNETRRLTTSGAYNIIDGCWRGKADWAENRKALADCAQGFGKGTVGGKDGDIYTVTSELDDDVANPKEGTLRFGAAQNRPLWIIFERDMVIRLDKEMVVNSDKTIDGRGAKVEIINAGFTLNGVKNVIIHNINMHDVKVNPGGLIKSNDGPAAPRAGSDGDAISISGSSQIWIDHCSLSKSVDGLVDAKLGTTRLTVSNSLFTQHQFVLLFGAGDENIEDRGMLATVAFNTFTDNVDQRMPRCRHGFFQVVNNNYDKWGSYAIGGSASPTILSQGNRFCAPDERSKKNVLGRHGEAAAESMKWNWRTNKDVLENGAIFVASGVDPVLTPEQSAGMIPAEPGESALSLTSSAGVLSCQPGAPC
[1]
  CXCL8 secretion from TCM^Null cells: only in TCM^Hi cells
[2]
  CXCL8 secretion from TLR4^Hi cells: only in TCM^Hi cells
[3]
  CXCL8 secretion from TCM^Hi cells: induced CXCL8 secretion
